The values below come from patent US20240383958A1, “APELIN RECEPTOR AGONISTS AND USES THEREOF” (VISTERRA, INC., priority 2023, published 2024).

Test [1] deals with T1, APJ-eGFP fusion protein on CHO-M1 cells (UniProt P35414 1-380).
T1 sequence (looked up): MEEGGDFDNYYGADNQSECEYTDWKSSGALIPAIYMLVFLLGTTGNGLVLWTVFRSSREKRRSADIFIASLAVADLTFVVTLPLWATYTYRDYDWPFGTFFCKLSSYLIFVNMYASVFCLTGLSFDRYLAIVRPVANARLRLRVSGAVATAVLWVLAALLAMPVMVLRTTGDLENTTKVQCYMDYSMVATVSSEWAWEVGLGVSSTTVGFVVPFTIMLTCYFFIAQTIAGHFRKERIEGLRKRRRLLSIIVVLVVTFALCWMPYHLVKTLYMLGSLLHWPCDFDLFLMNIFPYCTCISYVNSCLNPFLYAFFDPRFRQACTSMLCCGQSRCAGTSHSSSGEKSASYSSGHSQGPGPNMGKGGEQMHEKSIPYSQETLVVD
In words: cell-based or functional assay.

Test [2] addresses T2, apelin receptor (AGTRL1) on CHO-K1 cells (UniProt P35414 1-380, limits assumed).
T2 sequence (looked up): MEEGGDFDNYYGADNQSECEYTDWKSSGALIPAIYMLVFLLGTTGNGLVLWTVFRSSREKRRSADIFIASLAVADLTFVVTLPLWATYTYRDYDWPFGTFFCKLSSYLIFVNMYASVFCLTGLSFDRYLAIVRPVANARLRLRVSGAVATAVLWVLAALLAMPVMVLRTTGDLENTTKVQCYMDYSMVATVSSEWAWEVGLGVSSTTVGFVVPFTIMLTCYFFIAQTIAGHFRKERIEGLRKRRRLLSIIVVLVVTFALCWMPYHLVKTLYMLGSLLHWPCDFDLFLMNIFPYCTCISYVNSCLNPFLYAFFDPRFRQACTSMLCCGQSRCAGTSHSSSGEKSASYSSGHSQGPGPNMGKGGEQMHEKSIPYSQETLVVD
In words: cell-based or functional assay.

B1: ELA-A (Fc fusion)
chain: DKTHTSPPSPAPEAAGGPSVFLFPPKPKDTLMISRTPEVTCVVVDVSHEDPEVKFNWYVDGVEVHNAKTKPREEQYNSTYRVVSVLTVLHQDWLNGKEYKCKVSNKALPAPIEKTISKAKGQPREPQVYTLPPSREEMTKNQVNLTCLVKGFYPSDIAVEWESNGQPENNYKTTPPVLDSDGSFFLNSTLTVDKSRWQQGNVFSCSVMHEALHNHYTQKSLSLSPGKGGGGSGGGGSGGGGSKLRKHNCLQRRCMPLHSRVPFP
With B1, the “Internalization Score” value in test [1] was determined as 3. Further, in test [2], the “ERK EC50” value was found to be 0.19 nM, the “beta-Arrestin EC50 (nM) Exp. 1” value is 90.1 nM, the “beta-Arrestin EC50 (nM) Exp. 2” value worked out at 42.6 nM and the “cAMP EC50 (nM) Exp. 1” value amounted to 0.85 nM. Moreover, the “cAMP EC50 (nM) Exp. 2” value in test [2] is 1.4 nM.

B2: ELA-F (Fc fusion)
chain: DKTHTSPPSPAPEAAGGPSVFLFPPKPKDTLMISRTPEVTCVVVDVSHEDPEVKFNWYVDGVEVHNAKTKPREEQYNSTYRVVSVLTVLHQDWLNGKEYKCKVSNKALPAPIEKTISKAKGQPREPQVYTLPPSREEMTKNQVNLTCLVKGFYPSDIAVEWESNGQPENNYKTTPPVLDSDGSFFLNSTLTVDKSRWQQGNVFSCSVMHEALHNHYTQKSLSLSPGKGGGGSGGGGSGGGGSKLRKHNCLKRRCMPLHSRVPFP
On to B2, for which the “Internalization Score” value in test [1] amounted to 3. Further, in test [2], the “beta-Arrestin EC50 (nM) Exp. 1” value is 9.59 nM, the “beta-Arrestin EC50 (nM) Exp. 2” value was 43.5 nM, the “cAMP EC50 (nM) Exp. 1” value was found to be 1.01 nM and the “cAMP EC50 (nM) Exp. 2” value is 1 nM.

B3: ELA-G (Fc fusion)
chain: DKTHTSPPSPAPEAAGGPSVFLFPPKPKDTLMISRTPEVTCVVVDVSHEDPEVKFNWYVDGVEVHNAKTKPREEQYNSTYRVVSVLTVLHQDWLNGKEYKCKVSNKALPAPIEKTISKAKGQPREPQVYTLPPSREEMTKNQVNLTCLVKGFYPSDIAVEWESNGQPENNYKTTPPVLDSDGSFFLNSTLTVDKSRWQQGNVFSCSVMHEALHNHYTQKSLSLSPGKGGGGSGGGGSGGGGSKLRKHNCLQRRCMPLHSYVPFP
For B3, the “Internalization Score” value in test [1] was 1. Besides, in test [2], the “beta-Arrestin EC50 (nM) Exp. 1” value was determined as 89.1 nM, the “beta-Arrestin EC50 (nM) Exp. 2” value amounted to 521 nM, the “cAMP EC50 (nM) Exp. 1” value is 9.91 nM and the “cAMP EC50 (nM) Exp. 2” value amounted to 14.3 nM.

B4: ELA-E (Fc fusion)
chain: DKTHTSPPSPAPEAAGGPSVFLFPPKPKDTLMISRTPEVTCVVVDVSHEDPEVKFNWYVDGVEVHNAKTKPREEQYNSTYRVVSVLTVLHQDWLNGKEYKCKVSNKALPAPIEKTISKAKGQPREPQVYTLPPSREEMTKNQVNLTCLVKGFYPSDIAVEWESNGQPENNYKTTPPVLDSDGSFFLNSTLTVDKSRWQQGNVFSCSVMHEALHNHYTQKSLSLSPGKGGGGSGGGGSGGGGSKLRKHNCLQRRCMPLHRRVPFP
On to B4, for which the “Internalization Score” value in test [1] was 0. Also, in test [2], the “beta-Arrestin EC50 (nM) Exp. 2” value was found to be 352 nM, the “cAMP EC50 (nM) Exp. 1” value is 4.42 nM and the “cAMP EC50 (nM) Exp. 2” value is 2.4 nM.

B5: ELA-C (Fc fusion)
chain: DKTHTSPPSPAPEAAGGPSVFLFPPKPKDTLMISRTPEVTCVVVDVSHEDPEVKFNWYVDGVEVHNAKTKPREEQYNSTYRVVSVLTVLHQDWLNGKEYKCKVSNKALPAPIEKTISKAKGQPREPQVYTLPPSREEMTKNQVNLTCLVKGFYPSDIAVEWESNGQPENNYKTTPPVLDSDGSFFLNSTLTVDKSRWQQGNVFSCSVMHEALHNHYTQKSLSLSPGKGGGGSGGGGSGGGGSKLRKHNCLQRRCMILHSRVPFP
As for B5, in test [1], the “Internalization Score” value was 2. Further, in test [2], the “ERK EC50” value was found to be 1.13 nM, the “beta-Arrestin EC50 (nM) Exp. 1” value came out at 535 nM, the “beta-Arrestin EC50 (nM) Exp. 2” value came out at 75.1 nM and the “cAMP EC50 (nM) Exp. 1” value was found to be 0.577 nM. In addition, the “cAMP EC50 (nM) Exp. 2” value in test [2] is 1 nM.

B6: ELA-D (Fc fusion)
chain: DKTHTSPPSPAPEAAGGPSVFLFPPKPKDTLMISRTPEVTCVVVDVSHEDPEVKFNWYVDGVEVHNAKTKPREEQYNSTYRVVSVLTVLHQDWLNGKEYKCKVSNKALPAPIEKTISKAKGQPREPQVYTLPPSREEMTKNQVNLTCLVKGFYPSDIAVEWESNGQPENNYKTTPPVLDSDGSFFLNSTLTVDKSRWQQGNVFSCSVMHEALHNHYTQKSLSLSPGKGGGGSGGGGSGGGGSKLRKHNCLQRRCMPLHQRVPFP
In the case of B6, in test [1], the “Internalization Score” value turned out to be 1. In test [2], the “beta-Arrestin EC50 (nM) Exp. 2” value is 922 nM, the “cAMP EC50 (nM) Exp. 1” value was 10.7 nM and the “cAMP EC50 (nM) Exp. 2” value came to 4.4 nM.

B7: ELA-H (Fc fusion)
chain: DKTHTSPPSPAPEAAGGPSVFLFPPKPKDTLMISRTPEVTCVVVDVSHEDPEVKFNWYVDGVEVHNAKTKPREEQYNSTYRVVSVLTVLHQDWLNGKEYKCKVSNKALPAPIEKTISKAKGQPREPQVYTLPPSREEMTKNQVNLTCLVKGFYPSDIAVEWESNGQPENNYKTTPPVLDSDGSFFLNSTLTVDKSRWQQGNVFSCSVMHEALHNHYTQKSLSLSPGKGGGGSGGGGSGGGGSKLRKHNCLQRRCMPYHSRVPFP
As for B7, in test [1], the “Internalization Score” value turned out to be 2. Further, in test [2], the “beta-Arrestin EC50 (nM) Exp. 1” value was found to be 21.9 nM, the “beta-Arrestin EC50 (nM) Exp. 2” value worked out at 97.5 nM, the “cAMP EC50 (nM) Exp. 1” value was 10 nM and the “cAMP EC50 (nM) Exp. 2” value was 5.8 nM.

B8: ELA-K (Fc fusion)
chain: DKTHTSPPSPAPEAAGGPSVFLFPPKPKDTLMISRTPEVTCVVVDVSHEDPEVKFNWYVDGVEVHNAKTKPREEQYNSTYRVVSVLTVLHQDWLNGKEYKCKVSNKALPAPIEKTISKAKGQPREPQVYTLPPSREEMTKNQVNLTCLVKGFYPSDIAVEWESNGQPENNYKTTPPVLDSDGSFFLNSTLTVDKSRWQQGNVFSCSVMHEALHNHYTQKSLSLSPGKGGGGSGGGGSGGGGSKLRKHNCLIRRCMPLHSRVPFP
Regarding B8, the “Internalization Score” value in test [1] turned out to be 2. Further, in test [2], the “beta-Arrestin EC50 (nM) Exp. 1” value worked out at 3.45 nM, the “beta-Arrestin EC50 (nM) Exp. 2” value came to 12.2 nM, the “cAMP EC50 (nM) Exp. 1” value came out at 4.76 nM and the “cAMP EC50 (nM) Exp. 2” value is 5.7 nM.

B9: ELA-L (Fc fusion)
chain: DKTHTSPPSPAPEAAGGPSVFLFPPKPKDTLMISRTPEVTCVVVDVSHEDPEVKFNWYVDGVEVHNAKTKPREEQYNSTYRVVSVLTVLHQDWLNGKEYKCKVSNKALPAPIEKTISKAKGQPREPQVYTLPPSREEMTKNQVNLTCLVKGFYPSDIAVEWESNGQPENNYKTTPPVLDSDGSFFLNSTLTVDKSRWQQGNVFSCSVMHEALHNHYTQKSLSLSPGKGGGGSGGGGSGGGGSKLRKHNCATRRCMPLHSRVPFP
For B9, the “Internalization Score” value in test [1] is 2. In addition, in test [2], the “beta-Arrestin EC50 (nM) Exp. 1” value is 7.54 nM, the “beta-Arrestin EC50 (nM) Exp. 2” value was 6.9 nM, the “cAMP EC50 (nM) Exp. 1” value amounted to 0.632 nM and the “cAMP EC50 (nM) Exp. 2” value stood at 2.8 nM.

B10: ELA-B (Fc fusion)
chain: DKTHTSPPSPAPEAAGGPSVFLFPPKPKDTLMISRTPEVTCVVVDVSHEDPEVKFNWYVDGVEVHNAKTKPREEQYNSTYRVVSVLTVLHQDWLNGKEYKCKVSNKALPAPIEKTISKAKGQPREPQVYTLPPSREEMTKNQVNLTCLVKGFYPSDIAVEWESNGQPENNYKTTPPVLDSDGSFFLNSTLTVDKSRWQQGNVFSCSVMHEALHNHYTQKSLSLSPGKGGGGSGGGGSGGGGSKLNKHNCLQRRCMPLHSRVPFP
B10: the “Internalization Score” value in test [1] came out at 3. Moreover, in test [2], the “ERK EC50” value was 0.92 nM, the “beta-Arrestin EC50 (nM) Exp. 1” value was found to be 1120 nM, the “beta-Arrestin EC50 (nM) Exp. 2” value amounted to 59.9 nM and the “cAMP EC50 (nM) Exp. 1” value came out at 0.349 nM. The “cAMP EC50 (nM) Exp. 2” value in test [2] stood at 1.5 nM.

B11: APL-J (Fc fusion)
chain: DKTHTSPPSPAPEAAGGPSVFLFPPKPKDTLMISRTPEVTCVVVDVSHEDPEVKFNWYVDGVEVHNAKTKPREEQYNSTYRVVSVLTVLHQDWLNGKEYKCKVSNKALPAPIEKTISKAKGQPREPQVYTLPPSREEMTKNQVNLTCLVKGFYPSDIAVEWESNGQPENNYKTTPPVLDSDGSFFLNSTLTVDKSRWQQGNVFSCSVMHEALHNHYTQKSLSLSPGKGGGGSGGGGSGGGGSQRPRLSHKGPAAY
On to B11, for which the “Internalization Score” value in test [1] came out at 1.

B12: APL-L (Fc fusion)
chain: DKTHTSPPSPAPEAAGGPSVFLFPPKPKDTLMISRTPEVTCVVVDVSHEDPEVKFNWYVDGVEVHNAKTKPREEQYNSTYRVVSVLTVLHQDWLNGKEYKCKVSNKALPAPIEKTISKAKGQPREPQVYTLPPSREEMTKNQVNLTCLVKGFYPSDIAVEWESNGQPENNYKTTPPVLDSDGSFFLNSTLTVDKSRWQQGNVFSCSVMHEALHNHYTQKSLSLSPGKGGGGSGGGGSGGGGSQRPRLQHKNPMAW
For the molecule B12, the “Internalization Score” value in test [1] stood at 0.

B13: APL-M (Fc fusion)
chain: DKTHTSPPSPAPEAAGGPSVFLFPPKPKDTLMISRTPEVTCVVVDVSHEDPEVKFNWYVDGVEVHNAKTKPREEQYNSTYRVVSVLTVLHQDWLNGKEYKCKVSNKALPAPIEKTISKAKGQPREPQVYTLPPSREEMTKNQVNLTCLVKGFYPSDIAVEWESNGQPENNYKTTPPVLDSDGSFFLNSTLTVDKSRWQQGNVFSCSVMHEALHNHYTQKSLSLSPGKGGGGSGGGGSGGGGSQRPRLSHWGPMAW
For B13, in test [1], the “Internalization Score” value came to 0.

B14: APL-K (Fc fusion)
chain: DKTHTSPPSPAPEAAGGPSVFLFPPKPKDTLMISRTPEVTCVVVDVSHEDPEVKFNWYVDGVEVHNAKTKPREEQYNSTYRVVSVLTVLHQDWLNGKEYKCKVSNKALPAPIEKTISKAKGQPREPQVYTLPPSREEMTKNQVNLTCLVKGFYPSDIAVEWESNGQPENNYKTTPPVLDSDGSFFLNSTLTVDKSRWQQGNVFSCSVMHEALHNHYTQKSLSLSPGKGGGGSGGGGSGGGGSQRPRLQHKNPMAF
Regarding B14, the “Internalization Score” value in test [1] was 0.
